Results taken from the DeepSol protein solubility set.

Assay: soluble on expression in E. coli; label from the status in PepcDB or PDB records

Sequence	soluble on expression in E. coli
MHKPCAVIPVYNHETAVPAVVEVLLARGLPCVLVDDASSPQCAAVLEQLAGLDQVFLIRLAINQGKGGAVMAGLREAAQLGFSHALQVDADGQHDLTDVDNFIQHSQAHPEALVCGYPQYDASVPKGRLYARYLTHVWVWINSLSLQIPDSMCGFRVYPLPPTLALLDSVQLGRRMDFDPEILVRLAWRNQPMRWLPTRVHYPQDGLSHFRLFHDNALISKMHAKLFFGMLARLPLILWRRWRPLEHHHHHH	not soluble
MQLTKLTQEIFDHLYRDISEFRQTFDLPVAAPQTLNSQADTLHTSLAIEELTELAQADNKTEQADAIVDTVYVLMGRLVHLGHAKVEDNLAISYLIDLLLHVAANLNIDFLPCWDEVHSSNMSKVCRSEQEYLDTEKFYAEQGVKLMAVHQGEYIIAKCAEDFISESKTVRQGKVLKSVYYRPANLAALTQ	not soluble
MIQVLGTSSGSGKTTIAMALSRIFFRSGYRVAPFKAVNMSLNSVIVEGEYEIARAQWLQAKAANTEPTRFMNPILLKPEGMGASQVIMLGKSLGKKTIPEYYEFIMNDGKRVIREAIDRISDDYDLIIAEGAGSPAEINLLDRDMANIYVSSIYNTPAILVGDIDRGGVFASIYGTLSLMPRPDLVRWIMINKMRGDASLLEPGLKKLENLTGKRVIGVVPYSENRLPGEDSFDYDHPRARGSKITIVRYPFMENYSDLDPLVYTSTGYNYVTAENASDLSDADLIVLPGSKNVFADLEYMRKNGIDKIIIENAGRAKILGICGGYQMLGQRITMGEISADGLGLLRAKTNYERTKTTRSVRYRVDNTLMSGTWEEGYEIHYGAVISLGGERMNETDKGPEGNVDANRLVFGTNIHGILANRSVFRFMTGRDIGEPEEYLRSEIDRFADVVKSSIDVADLIEYASSRE	not soluble
MQVFIMRHGDAALDAASDSVRPLTTNGCDESRLMANWLKGQKVEIERVLVSPFLRAEQTLEEVGDCLNLPSSAEVLPELTPCGDVGLVSAYLQALTNEGVASVLVISHLPLVGYLVAELCPGETPPMFTTSAIASVTLDESGKGEFNWQMSPCNLKMAKAI	soluble
MRGKRVVLPDKDHQACGLFGVIDRSGRRFSGEMAINAMINMKVRGNGLGGGFAAYGIYPEYKDYYALHVMFQDWDMEAKHRVDEFLDANFDVVYAEEIPVNPEANVASPPLFWRYFVSPNKKGDEKKLSDDDYVVKKVMEINTKINNAYVVSSGKDMGVFKGVGFPEDIAEYFMLAEEYKGYMWTAHSRFPTNTPGWWGGAHPFCILDWTVVHNGEISSYGTNKRYLEMFGYYCTLLTDTEVMAYAVDLLMRKQGLPIEIVSKIFAPPMWDHIDIMDEKKKKFYTALRMNYGPLLINGPWTIVVARHGEMFGITDRIRLRPITSGEKGDLLFVSSEESAIRAVCPDLDRVYTPMGGEPVIGRLKSREKELAKQLSEVE	not soluble
SDYFRSCWGPRSPAGHRVRGSDVAGRQDGLLWYKDAGQLVTGEFSMAVVQANNLLEDQSQVESGALSMAEPGPQGTFIGVYDGHGGPETARFINDHMFHHLRRFATEHKCMSTDVIRKAFQATEEGFLSLVSKQWSLKPQIAAVGSCCLVGVICSGTLYVANLGDSRAVLGRFVKSTGEVVATQLSSEHNACYEEVRQELQASHPDDPQIVVLKHNVWRVKGLIQISRSIGDVYLKRPEYNREPLHSKFRLRETFKRPILSSEPAIAVHQIQPNDHFVIFASDGLWEHLSNQEAVDLVQNNPRNGIARRLVKVAMQEAAKKREMRYSDLKKIDRGVRRHFHDDITVIVVFLDSNAISKANWSRGPSVSLRGGGVTLPANSLAPFSTPTVLSSTY	soluble
MSILDLTKISKDSTKLQNFVKFERVKTGGLDVYMSEYSWNTKEAGTMSICDVSENTSLDYRSNHQQLLKSWISSTEKIAQLFPTTLRTFQVTPPMIAAILDLETAIPKTCDVLIIQNYVPAEMDRYQESVDQFMEKCHIREGVVLHHEVYTNSPKMFQLDYLSVTHSDWMVPSDLEEMENKIVYLDKSDFYDSDMNQFLRELKSGSSHSRLQILSIQGNSWQNYWDPSDVLEGLNAELWNQTERNQHYFLNAEHRKNFKKIADHFYPDQEDGFGAELEHGVDLSEAFDFLKNDGTRVSVRFDELILQVFVWPNEKPSRKRKAQEQGSIAKRFC	not soluble
AHHHHHHGSSKNYKKHQAYIAGRDKMKVAVITGASRGIGEAIAKALAEDGYSLALGARSVDRLEKIAKELSEKHGVEVFYDYLDVSKPESVEEFARKTLAHFGDVDVVVANAGLGYFGRLEELTEEQFHEMIEVNLLGVWRTIKAFLNSLKRTGGVAIVVTSDVSARLLPYGGGYVATKWAARALVRTFQIENPDVRFFELRPGAVDTYFGGSKAGKPKEQGYLKPEEVAEAVKYLLRLPKDVRVEELMLRSIYQKPEY	soluble
